According to article PMC10848371:
Where two headings read alike, the source gives them in different places.

PD-1 (programmed cell death protein 1): 3NQ (N49Q, N58Q, N74Q)
decreases: localisation_or_trafficking (N-glycosylation at N49) | stability_or_folding (N-glycosylation at N49) | localisation_or_trafficking (N-glycosylation at N58) | stability_or_folding (N-glycosylation at N58) | localisation_or_trafficking (N-glycosylation at N74) | stability_or_folding (N-glycosylation at N74)
